The source of these data is patent US5460942A, “The catalytic moiety of the glucose-6-phosphatase system: the gene and protein and related mutations” (The United States of America as represented by the …, priority 1993, dated 1995).

The target of data set [1] is glucose-6-P phosphohydrolase activity. Conditions: read-out: Ki for vanadate reported; permeable hepatocytes or rat microsomes; cited from earlier work.
For data set [2], the target named is human G-6-Pase (Homo sapiens, UniProt P35575, A192T). The conditions noted are these: read-out: Vanadate K1; phG-6-Pase-1-transfected COS-1 microsomes. Here is the method:
(§1) The functional identity of the human G-6-Pase cDNA was studied in a manner similiar to that described above with the murine G-6-Pase. Detailed biochemical studies were performed on microsomal preparations isolated from COS-1 cells transiently transfected with the phG-6-Pase-1 cDNA and compared with activities in human liver microsomes.

The target in data set [3] is human liver microsomal G-6-Pase (Homo sapiens, UniProt P35575). The conditions noted are these: read-out: Vanadate K1; human liver microsomes. Here is the method: as §1
Background: Microsomes from liver hold many membrane-bound enzymes, among them those of drug oxidation.

The target of data set [4] is T1, mouse liver microsomal G-6-Pase (Mus musculus, UniProt P35576).
T1 construct: hepatic G-6-Pase activities of microsomes isolated from adult mouse liver; from tissue; host or cells: liver microsomes of fasted Swiss Webster mice
T1 sequence (P35576 1-357): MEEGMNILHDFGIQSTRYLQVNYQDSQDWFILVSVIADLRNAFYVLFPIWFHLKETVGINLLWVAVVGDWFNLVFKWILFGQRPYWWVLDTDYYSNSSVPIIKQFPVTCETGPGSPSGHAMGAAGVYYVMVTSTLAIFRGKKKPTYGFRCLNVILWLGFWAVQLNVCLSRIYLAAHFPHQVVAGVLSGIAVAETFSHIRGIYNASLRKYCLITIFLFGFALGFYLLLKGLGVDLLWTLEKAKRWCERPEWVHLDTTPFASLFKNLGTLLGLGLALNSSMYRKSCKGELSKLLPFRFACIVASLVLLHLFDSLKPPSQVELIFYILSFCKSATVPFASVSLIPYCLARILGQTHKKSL
Kind of data set: Phosphohydrolase assay, adult mouse liver microsomes. The format is biochemical. Conditions: competitive inhibitor of glucose-6-P phosphohydrolysis, read-out: Vanadate, Ki.
Method: (§2) Microsomal membranes were isolated by the method of Burchell et al. supra. Samples were taken from either Swiss Webster mice which had been fasted overnight or freshly prepared homogenates of pSVLmG-6-Pase-transfected COS-1 cells. Disrupted microsomal membranes were prepared by incubating intact membranes in 0.2% deoxycholate for 20 min at 0° C.
(§3) Phosphohydrolase activity was determined essentially as described by Burchell et al. Supra. […] Sample absorbance was determined at 820 nm and is related to the amount of phosphate released using a standard curve constructed by a stock of inorganic phosphate solution.

Data set [5] concerns the target T2, murine G-6-Pase (Mus musculus, UniProt P35576).
T2 sequence (P35576 1-357): T1 sequence (P35576 1-357)
Conditions: read-out: Ki values for vanadate observed in the present study; both microsomal preparations (transfected COS-1 cells and adult mouse livers).
Method: COS-1 cells were grown at 37° C. in HEPES-buffered Dulbecco modified minimal essential medium supplemented with streptomycin, penicillin, and 4% fetal bovine serum. […] Mock transfections of COS-1 cultures with the pSVL vector were used as controls.
as §2, §3

Substrate in data set [6]: O=P(O)(O)OC[C@H]1OC(O)[C@@H](O)[C@@H](O)[C@@H]1O
The experiment in a line: cells, lysate or membranes named. Conditions: other: disrupted adult mouse liver microsomes; mean ± SEM; pH 6.5; 30.0 °C.

Substrate in data set [7]: O=P(O)(O)OC[C@H]1OC(O)[C@H](O)[C@@H](O)[C@@H]1O
Kind of data set: cells, lysate or membranes named. Conditions: pH 6.5, 30.0 °C.

Data set [8] can be described thus: Carbamyl-P:glucose phosphotransferase activity in disrupted microsomes. The format is biochemical, mouse. The conditions noted are these: deoxycholate-disrupted microsomes, linear region of enzyme concentration curves. On the procedure:
Phosphotransferase activity was determined by a modification of the method described by Jorgenson and Nordlie, supra. Reaction mixture (10 μl) contained 100 mM HEPES buffer, pH 6.5, 50 mM glucose, […] D-glucose (10^5 cpm/reaction, 256 mCi/mmol, ICN Biochemicals, Irvine, Calif.), 4 mM carbamyl-P, and deoxycholate-disrupted microsomal proteins. […] The samples were then centrifuged at 10,000×g for 5 min, and 2 to 4 μl of supernatant applied to a PEI-cellulose plate (J. T. Baker, Inc., Phillipsburg, N.J.). Glucose-6-P was separated from glucose by thin-layer chromatography developed in water. Spots were quantitated on an AMBIS Radioanalytic Imaging System (San Diego, Calif.).

Data set [9] can be described thus: pH profile of glucose-6-P phosphohydrolase activity in disrupted microsomes. The format is biochemical, mouse.
The nature of data set [10]: Thermal stability of glucose-6-P phosphohydrolase activity (37° C., 10 min, pH 5.0). In kind it is biochemical. The conditions noted are these: for Thermal Stability (enzyme activities remaining after heat treatment): deoxycholate (0.2%) disrupted microsomes. On the procedure:
Hepatic G-6-Pase is characterized by its high thermal lability; G-6-Pase is completely inactivated by incubating the microsomal preparation (or homogenate) at pH 5.0 for 10 min at 37° C., Hers, H. G., in Advances in Metabolic Disorders Vol 1 (eds Levine, R., Luft, L.), 1-44 (Academic Press, London, 1964).

Data set [11] is described as follows: Phosphohydrolase activity of site-directed human G-6-Pase mutants in transfected cells. The format is biochemical. Conditions: arginine to cysteine substitution; pSVL constructs in transfected cells. The source says: The two outside PCR primers were 01 (5'-[…]-3' (Seq. ID No.:29), nucleotides 77 to 96) and 02 (5'-[…]-3' (Seq. ID No.:30), nucleotides 1153 to 1130). […] 01 and 02 contain an additional XhoI or XbaI linker, respectively. […] The amplified fragments were digested with XhoI and XbaI and ligated into a pSVL vector. All constructs were confirmed by DNA sequencing.

Positions count from the first letter of the chain named. Names and notes keep the numbering of the source.

Sequence of human liver microsomal G-6-Pase (P35575 whole entry): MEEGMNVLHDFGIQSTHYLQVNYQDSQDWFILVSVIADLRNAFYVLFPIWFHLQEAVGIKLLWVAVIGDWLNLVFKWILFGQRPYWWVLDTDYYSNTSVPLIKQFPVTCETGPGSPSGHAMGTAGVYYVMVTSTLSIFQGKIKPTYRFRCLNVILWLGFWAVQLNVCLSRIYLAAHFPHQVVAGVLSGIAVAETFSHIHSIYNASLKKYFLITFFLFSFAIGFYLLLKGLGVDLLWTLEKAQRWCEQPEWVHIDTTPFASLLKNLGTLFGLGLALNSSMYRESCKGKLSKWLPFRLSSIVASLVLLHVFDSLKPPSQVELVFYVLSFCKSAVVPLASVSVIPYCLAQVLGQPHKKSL

Regarding `[O]=[V]([OH])([OH])[OH]` [Vanadate], the Ki in [1] is 1.5 µM; in [2] it was 1680 µM; in [3], 1610 µM; in data set [4], 330 µM; in data set [5], 330 to 340 µM.

B1: mouse liver microsomal G-6-Pase (Mus musculus) (protein)
chain: T1 sequence (P35576 1-357)
A word on the Km: it is the concentration of substrate that gives half-maximal velocity. For B1, the Km in data set [6] is 670 µM; in data set [7] (other: disrupted adult mouse liver microsomes, mean ± SEM) it was 680 µM; in [7] (other: intact adult mouse liver microsomes), 3300 µM.

B2: pSVLmG-6-Pase-Transfacted COS: recombinant murine G-6-Pase in microsomes of COS-1 cells transfected with pSVLmG-6-Pase (protein, UniProt P35576 1-357, looked up)
Glucose-6-phosphatase …: T1 sequence (P35576 1-357)
modifications: in COS-1 microsomes
notes: recombinant murine G-6-Pase in microsomes of COS-1 cells transfected with pSVLmG-6-Pase
Consider B2, for which the “Phosphotransferase, Carbamyl-P: Glucose” value in data set [8] was 0.22 μmol/min/mg of microsomal prot. Further, in [9], the “pH optimum of glucose-6-P phosphohydrolase activity” value is around 6.5. Further, the “Thermal Stability (enzyme activities remaining after heat treatment)” value in data set [10] (37° C. for 10 min at pH 5.0, murine study) was found to be 1.6%. In data set [10] (murine study), the “glucose-6-P phosphohydrolase activity after incubation at 37° C. for 10 min at pH 5.0 (in words)” value is listed as “abolished”.

B3: human G-6-Pase (Homo sapiens; A192T) (protein)
chain: MEEGMNVLHDFGIQSTHYLQVNYQDSQDWFILVSVIADLRNAFYVLFPIWFHLQEAVGIKLLWVAVIGDWLNLVFKWILFGQRPYWWVLDTDYYSNTSVPLIKQFPVTCETGPGSPSGHAMGTAGVYYVMVTSTLSIFQGKIKPTYRFRCLNVILWLGFWAVQLNVCLSRIYLAAHFPHQVVAGVLSGIAVTETFSHIHSIYNASLKKYFLITFFLFSFAIGFYLLLKGLGVDLLWTLEKAQRWCEQPEWVHIDTTPFASLLKNLGTLFGLGLALNSSMYRESCKGKLSKWLPFRLSSIVASLVLLHVFDSLKPPSQVELVFYVLSFCKSAVVPLASVSVIPYCLAQVLGQPHKKSL
For the molecule B3, the Michaelis-Menten constant (Km) in [7] (other: phG-6-Pase-1-transfected COS-1 microsomes) turned out to be 1770 ± 130 µM.

B4: human liver microsomal G-6-Pase (Homo sapiens) (protein)
chain: B3 chain with T192A
As for B4, the Km in [7] (other: human liver microsomes) came out at 1710 ± 110 µM.

B5: phG-6-Pase-1-COS: recombinant human G-6-Pase in microsomes of COS-1 cells transiently transfected with phG-6-Pase-1 cDNA (protein, UniProt P35575 1-357, looked up)
Glucose-6-phosphatase …: B3 chain with T192A
modifications: in COS-1 microsomes
notes: recombinant human G-6-Pase in microsomes of COS-1 cells transiently transfected with phG-6-Pase-1 cDNA
Regarding B5, the “Thermal Stability (enzyme activities remaining after heat treatment)” value in data set [10] (10 min at 37° C., 50 mM cacodylate buffer pH 5.0, human study) turned out to be 6.0%. In addition, in [10] (human study), the “glucose-6-P phosphohydrolase activity after incubation at 37° C. for 10 min at pH 5.0 (in words)” value is on record as “virtually abolished”.

B6: G-6-Pase-Cys^83: human G-6-Pase mutant, arginine 83 changed to cysteine (protein, UniProt P35575 1-357, looked up, variant R83C)
Glucose-6-phosphatase …: B3 chain with R83C, T192A
On to B6, for which, in data set [11], the “G-6-Pase phosphohydrolase activity of mutant” value is “abolished”.

B7: G-6-Pase-Cys^295: human G-6-Pase mutant, arginine 295 changed to cysteine (protein, UniProt P35575 1-357, looked up, variant R295C)
Glucose-6-phosphatase …: B3 chain with T192A, R295C
For B7, in data set [11], the “G-6-Pase phosphohydrolase activity of mutant” value is given as “abolished”.
